The values that follow are results of earlier work, collected in publication PMC9020725.

Data set [1] concerns the target beta-spectrin repeats 10-13 (Homo sapiens) (UniProt P11277).
Data set [2] has as its target ankyrin band 3 binding domain (Homo sapiens) (UniProt P16157).
Chain of UniProt P16157 (P16157 1-827): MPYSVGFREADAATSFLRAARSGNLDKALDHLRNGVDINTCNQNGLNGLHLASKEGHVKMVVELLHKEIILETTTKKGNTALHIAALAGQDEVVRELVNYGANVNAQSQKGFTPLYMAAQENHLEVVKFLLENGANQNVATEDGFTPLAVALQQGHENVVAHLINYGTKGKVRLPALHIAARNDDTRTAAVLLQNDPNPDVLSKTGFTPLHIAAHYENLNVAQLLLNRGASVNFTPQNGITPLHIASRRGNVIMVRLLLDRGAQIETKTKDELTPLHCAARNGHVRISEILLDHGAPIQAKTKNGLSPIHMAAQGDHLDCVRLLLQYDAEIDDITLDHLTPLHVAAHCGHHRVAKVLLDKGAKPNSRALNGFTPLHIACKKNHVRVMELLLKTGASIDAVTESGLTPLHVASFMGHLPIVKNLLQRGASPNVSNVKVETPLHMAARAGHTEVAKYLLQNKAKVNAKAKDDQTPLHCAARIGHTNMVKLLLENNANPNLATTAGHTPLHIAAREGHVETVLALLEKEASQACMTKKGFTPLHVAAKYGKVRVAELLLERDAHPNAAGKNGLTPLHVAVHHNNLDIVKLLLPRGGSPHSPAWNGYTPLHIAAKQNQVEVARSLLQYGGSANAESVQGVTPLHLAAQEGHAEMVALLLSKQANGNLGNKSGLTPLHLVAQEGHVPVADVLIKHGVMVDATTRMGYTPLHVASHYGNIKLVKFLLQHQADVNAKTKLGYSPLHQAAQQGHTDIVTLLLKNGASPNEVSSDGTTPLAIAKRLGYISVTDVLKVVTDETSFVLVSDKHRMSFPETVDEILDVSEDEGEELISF

Chain of UniProt P11277 (P11277 1275-1688): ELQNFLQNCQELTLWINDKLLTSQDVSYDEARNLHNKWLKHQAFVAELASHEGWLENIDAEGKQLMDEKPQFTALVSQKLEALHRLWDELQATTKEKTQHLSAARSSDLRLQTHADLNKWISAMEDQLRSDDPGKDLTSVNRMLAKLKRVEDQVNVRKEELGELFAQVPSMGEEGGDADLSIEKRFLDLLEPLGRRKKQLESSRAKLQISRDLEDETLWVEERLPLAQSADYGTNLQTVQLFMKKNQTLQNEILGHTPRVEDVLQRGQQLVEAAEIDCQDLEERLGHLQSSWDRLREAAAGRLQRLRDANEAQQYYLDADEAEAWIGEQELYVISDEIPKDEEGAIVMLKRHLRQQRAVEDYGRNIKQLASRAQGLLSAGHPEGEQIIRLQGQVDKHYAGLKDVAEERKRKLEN

As for KAHRP (from UniProt P09346), the Kd is 50 µM in data set [1] and 1.55 µM in data set [2].

The Kd is the constant that tells how readily two partners part at equilibrium.
